In US20250346663A1 (published 2025):

What was measured:
Gen2 leptin = test: BLI; sample PP5871-021
[1] = target: mbp_G4S_hlep(22-167)V94M (MBP-(G4S)-human leptin V94M-6His); test: BLI; sample PP2054-095

Binder | Kd (Gen2 leptin) | Kd [1]
human leptin receptor (Fc-tagged dimeric) (Fc fusion) FNLSYPITPWRFKLSCMPPNSTYDYFLLPAGLSKNTSNSNGHYETAVEPKFNSSGTHFSNLSKTTFHCCFRSEQDRNCSLCADNIEGKTFVSTVNSLVFQQIDANWNIQCWLKGDLKLFICYVESLFKNLFRNYNYKVHLLYVLPEVLEDSPLVPQKGSFQMVHCNCSVHECCECLVPVPTAKLNDTLLMCLKITSGGVIFQSPLMSVQPINMVKPDPPLGLHMEITDDGNLKISWSSPPLVPFPLQYQVKYSENSTTVIREADKIVSATSLLVDSILPGSSYEVQVRGKRLDGPGIWSDWSTPRVFTTQDVIYFPPKILTSVGSNVSFHCIYKKENKIVPSKEIVWWMNLAEKIPQSQYDVVSDHVSKVTFFNLNETKPRGKFTYDAVYCCNEHECHHRYAELYVIDVNINISCETDGYLTKMTCRWSTSTIQSLAESTLQLRYHRSSLYCSDIPSIHPISEPKDCYLQSDGFYECIFQPIFLLSGYTMWIRINHSLGSLDSPPTCVLPDSVVKPLPPSSVKAEITINIGLLKISWEKPVFPENNLQFQIRYGLSGKEVQWKMYEVYDAKSKSVSLPVPDLCAVYAVQVRCKRLDGLGYWSNWSNPAYTVVMDIKVPMRGPEFWRIINGDTMKKEKNVTLLWKPLMKNDSLCSVQRYVINHHTSCNGTWSEDVGNHTKFTFLWTEQAHTVTVLAINSIGASVANFNLTFSWPMSKVNIVQSLSAYPLNSSCVIVSWILSPSDYKLMYFIIEWKNLNEDGEIKWLRISSSVKKYYIHDHFIPIEKYQFSLYPIFMEGVGKPKIINSFTQDDIEKHQSD | 1.41 nM | 
human FC-tagged dimeric leptin receptor (Fc fusion) FNLSYPITPWRFKLSCMPPNSTYDYFLLPAGLSKNTSNSNGHYETAVEPKFNSSGTHFSNLSKTTFHCCFRSEQDRNCSLCADNIEGKTFVSTVNSLVFQQIDANWNIQCWLKGDLKLFICYVESLFKNLFRNYNYKVHLLYVLPEVLEDSPLVPQKGSFQMVHCNCSVHECCECLVPVPTAKLNDTLLMCLKITSGGVIFQSPLMSVQPINMVKPDPPLGLHMEITDDGNLKISWSSPPLVPFPLQYQVKYSENSTTVIREADKIVSATSLLVDSILPGSSYEVQVRGKRLDGPGIWSDWSTPRVFTTQDVIYFPPKILTSVGSNVSFHCIYKKENKIVPSKEIVWWMNLAEKIPQSQYDVVSDHVSKVTFFNLNETKPRGKFTYDAVYCCNEHECHHRYAELYVIDVNINISCETDGYLTKMTCRWSTSTIQSLAESTLQLRYHRSSLYCSDIPSIHPISEPKDCYLQSDGFYECIFQPIFLLSGYTMWIRINHSLGSLDSPPTCVLPDSVVKPLPPSSVKAEITINIGLLKISWEKPVFPENNLQFQIRYGLSGKEVQWKMYEVYDAKSKSVSLPVPDLCAVYAVQVRCKRLDGLGYWSNWSNPAYTVVMDIKVPMRGPEFWRIINGDTMKKEKNVTLLWKPLMKNDSLCSVQRYVINHHTSCNGTWSEDVGNHTKFTFLWTEQAHTVTVLAINSIGASVANFNLTFSWPMSKVNIVQSLSAYPLNSSCVIVSWILSPSDYKLMYFIIEWKNLNEDGEIKWLRISSSVKKYYIHDHFIPIEKYQFSLYPIFMEGVGKPKIINSFTQDDIEKHQSD |  | 0.93 nM
